Patent US20250170257A1 (NANOLATTIX BIOTECHNOLOGY, published 2025)
Blank lines part the entries; values can stand above or below the binder they belong to.

Tests used:
tissue factor [1] = target: T1, tissue factor (UniProt P13726 33-251, limits assumed); test: SPR (Biacore S200), same method, tissue factor as analyte 12.5-200 nM; parent antibody before modification; tissue factor 12.5-200 nM
T1 construct: also called TF; antigen tissue factor
Excerpt: (§1) The humanized anti-tissue factor antibody was coupled to the 2nd channel on the surface of the CM5 chip via amino groups, the 1st and the 3rd channels were used as reference channels, the tissue factor flew through the chip surface as the analyte (mobile phase). […] The Kinetics/Affinity program of Bicore S200 was run to measure the affinity.

tissue factor [2] = target: T1, tissue factor; test: SPR (Biacore S200), antibody amine-coupled on CM5 chip, tissue factor as analyte 1.125-18 nM; MAb01
Excerpt: as §1

tissue factor [3] = target: T1, tissue factor; test: SPR (Biacore S200), antibody amine-coupled on CM5 chip, tissue factor as analyte 1.125-18 nM; MAb02
Excerpt: as §1

T1 sequence (P13726 33-251 limits assumed): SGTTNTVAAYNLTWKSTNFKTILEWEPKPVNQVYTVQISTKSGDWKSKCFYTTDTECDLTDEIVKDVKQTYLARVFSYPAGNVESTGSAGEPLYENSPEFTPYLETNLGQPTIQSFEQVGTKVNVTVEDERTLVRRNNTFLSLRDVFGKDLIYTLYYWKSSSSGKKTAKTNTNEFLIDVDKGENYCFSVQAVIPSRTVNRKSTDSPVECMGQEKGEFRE

Kd (tissue factor [1]): 33.7 nM
B1: humanized antibody against tissue factor before modification (CN 107446047A) (antibody, V domains shown)
VH: EVQLQQSGPELVKPGASVKVSCKASGYTFTHFNVYWVRQSPGKGLEWIGYIDPDNGITFYDENFMGKATLTVDKSSSTAYMQLNSLTSEDSAVYYCARDVTTAVDFWGQGTTLTVSS
VL: DIQMTQSPSSLSASVGDRVTITCLATQTLDTWLAWYQQKPGKAPQLLIYAATYLADGVPSRFSGSGSGTDFTFTISSLQPEDFATYYCQLVYSSPSTFGQGTKLEIK
notes: also called humanized antibody before modified

Kd (tissue factor [2]): 0.357 nM
B2: humanized anti-tissue factor antibody MAb01 (antibody, V domains shown)
VH: QIQLVQSGPELVKPGASVQVSCKTSGYSFTDYNVYWVRQSPAKGIEWIGYIDPYNGLTIYEQNFRGKGTLSLDHSTSTAYMELNSLRYEDTAVYFCARDVTTALDFWGQGTSVTVSS
VL: DIQMTQSPASISASIGERVTITCLASQTIDTWLAWFLQKPGRSPNLLIYAATNLADGVPYRFSASGSGNDFSLTISSLNPEDVATYYCQQVYSSPFTFGQGNKLEIRR

Kd (tissue factor [3]): 1 nM
B3: humanized anti-tissue factor antibody MAb02 (antibody, V domains shown)
VH: QIQLVQSGPEVVKPGASVRVSCKGSGYSFTDYNIYWVRQSPAKGLEWIGYIDPYNGLTIYDQNFRAKATLSVDHSTSNAYMEINSLRYEDTAVYFCARDVTSALEFWGQGTSVTVSS
VL: DIQMTQSPASISASVGERVTITCLGSQTIDTYLAWYLQKPGRSPQLLIYAATQLADGVPSRFSASGSGTDFSLTISSLQPEDVATYYCQNVYSSPFTFGQGNKLEIKR
notes: Full heavy chain (449 aa) and light chain (214 aa), expressed in CHO-dhfr- cells
